Measurements published in patent US20210009685A1 (ALTEOGEN, published 2021).
Numbering of substitutions follows the chain as printed.

Tests used:
[1] = target: T1, Folate receptor alpha (FOLR1) (human, UniProt P15328 25-234, limits assumed); test: SPR, Biacore3000, FOLR1 immobilised on CM5 chip, antibody as analyte
T1 construct: Antigen printed simply as FOLR1 for the panning, the clone ELISA and the SPR chip; also called human FOLR1; folate receptor-α
Procedure: (§1) To measure the binding affinity of the selected clone for FOLR1, SPR measurement was performed using a Biacore3000. Before each sample was loaded, a CM5 sensor chip was activated with 0.1 M NHS/0.4 M EDC, and then FOLR1 (20 μg/mL in 10 mM acetate, pH 5.0) was immobilized thereon. Then, unreacted NHS was deactivated with 1 M ethanolamine. 250 μL of each sample was prepared at concentrations of 1, 2, 5, 10, 20 and 40 nM, and association and dissociation sensorgrams were obtained while each sample was flushed at 30 μl/min. The sensor chip was regenerated with 10 mM glycine (pH 2.1). The obtained sensorgrams were analyzed using the BIAevaluation software, and the KD values were calculated.
(§2) To measure the binding affinity of the modified antibody vAb1 produced in Example 2 for FOLR1, an SPR assay was performed using a Biacore3000, in the same manner as described in Examples 1-5. The sensorgram was analyzed using the BIAevaluation software, and the KD value was calculated. […] This value is similar to the relative ratio of the values obtained using ELISA.

FOLR1-Fc [2] = target: T2, FOLR1-Fc (UniProt P15328 25-234, limits assumed); test: ELISA, FOLR1-Fc coated, antibody titrated (experiment with vAb3, vAb4, vAb5)
T2 construct: also called FOLR1 (ELISA coating); not shown: Fc part
T2 sequence (P15328 25-234 limits assumed): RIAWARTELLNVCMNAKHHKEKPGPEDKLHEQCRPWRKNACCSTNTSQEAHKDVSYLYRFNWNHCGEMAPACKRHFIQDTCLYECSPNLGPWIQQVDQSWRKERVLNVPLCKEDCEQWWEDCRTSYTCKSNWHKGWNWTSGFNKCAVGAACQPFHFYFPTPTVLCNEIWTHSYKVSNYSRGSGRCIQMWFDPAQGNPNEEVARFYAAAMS
Procedure: (§3) For the purpose of comparing the binding affinities of the primarily selected clones with each other, ELISA was performed at different clone concentrations in the following manner. 25 μL of FOLR1 was added to each well of a 96-well plate at a concentration of 1 μg/mL, coated on the plate at room temperature for 1 hour, and then blocked with 180 μL of 3% skim milk at room temperature for 1 hour. During blocking, samples to be used as primary antibodies were prepared. As primary antibodies, samples selected by screening were used. The samples were diluted to a concentration of 0.1 to 100 nM (0, 0.1, 0.3, 1, 3, 10, 30, and 100 nM) and cold-stored until use. After blocking, 3% skim milk was removed, and 25 μL of the primary antibody was added to each well and allowed to react at room temperature for 1 hour or more. After completion of the reaction, each well was washed three times with PBS-Tween20 (0.1%) buffer. […] After about 5 minutes, 25 μL of 1 M H₂SO₄ was added to each well to stop the reaction, and the absorbance at a wavelength of 450 nm was measured. From the measurement results, the EC (Effector concentration) value was calculated using the GraphPad Prism 7 program.
(§4) The measured values are obtained in different experiments for comparison with the parent antibody.

[3] = target: T1, Folate receptor alpha (FOLR1); test: SPR, Biacore3000, FOLR1 immobilised; the parent is the reference
Procedure: as §1, §2

FOLR1-Fc [4] = target: T2, FOLR1-Fc; test: ELISA, FOLR1-Fc coated (experiment with vAb3, vAb4, vAb5); the parent is the reference
Procedure: as §3, §4

FOLR1-Fc [5] = target: T2, FOLR1-Fc; test: ELISA, FOLR1-Fc coated (experiment with vAb1); the parent is the reference
FOLR1-Fc [6] = target: T2, FOLR1-Fc; test: ELISA, FOLR1-Fc coated, antibody titrated (experiment with vAb1)
Procedure: as §3, §4

FOLR1-Fc [7] = target: T2, FOLR1-Fc; test: ELISA, FOLR1-Fc coated, antibody titrated (experiment with vAb2)
Procedure: as §3, §4

FOLR1-Fc [8] = target: T2, FOLR1-Fc; test: ELISA, FOLR1-Fc coated (experiment with vAb2); the parent is the reference
[9] = target: T1, Folate receptor alpha (FOLR1); test: screening ELISA of panned phage library clones on FOLR1
FOLR1-Fc [10] = target: T2, FOLR1-Fc; test: ELISA, FOLR1-Fc coated
Procedure: (§5) For the purpose of comparing the binding affinities of the primarily selected clones with each other, ELISA was performed at different clone concentrations in the following manner. 25 μL of FOLR1 was added to each well of a 96-well plate at a concentration of 1 μg/mL, coated on the plate at room temperature for 1 hour, and then blocked with 180 μL of 3% skim milk at room temperature for 1 hour. During blocking, samples to be used as primary antibodies were prepared. As primary antibodies, samples selected by screening were used. The samples were diluted to a concentration of 0.1 to 100 nM (0, 0.1, 0.3, 1, 3, 10, 30, and 100 nM) and cold-stored until use. After blocking, 3% skim milk was removed, and 25 μL of the primary antibody was added to each well and allowed to react at room temperature for 1 hour or more. After completion of the reaction, each well was washed three times with PBS-Tween20 (0.1%) buffer. As a secondary antibody, HA-HRP was diluted 3,000-fold with 3% skim milk, and 25 μL of the dilution was added to each well and allowed to react at room temperature for 1 hour or more. After completion of the reaction, each well was washed three times with PBS-Tween20 (0.1%), and 25 μL of substrate TMB was added to each well to confirm color development. After about 5 minutes, 25 μL of 1 M H₂SO₄ was added to each well to stop the reaction, and the absorbance at a wavelength of 450 nm was measured. From the measurement results, the EC (Effector concentration) value was calculated using the GraphPad Prism 7 program.
as §4

FOLR1-Fc [11] = target: T2, FOLR1-Fc; test: ELISA, FOLR1-Fc coated, antibody titrated
Procedure: as §5, §4

[12] = target: T1, Folate receptor alpha (FOLR1); test: SPR, Biacore3000, FOLR1 immobilised
Procedure: as §1, §2

T1 sequence (P15328 25-234 limits assumed): as above

B1: Parent antibody (anti-FOLR1 antibody of US2005/0232919 A1) (antibody, V domains shown)
VH: EVQLVESGGGVVQPGRSLRLSCSASGFTFSGYGLSWVRQAPGKGLEWVAMISSGGSYTYYADSVKGRFAISRDNAKNTLFLQMDSLRPEDTGVYFCARHGDDPAWFAYWGQGTPVTVSS
VL: DIQLTQSPSSLSASVGDRVTITCSVSSSISSNNLHWYQQKPGKAPKPWIYGTSNLASGVPSRFSGSGSGTDYTFTISSLQPEDIATYYCQQWSSYPYMYTFGQGTKVEIK
notes: also called WT
In the case of B1, the Ka [1] is reported as 1.05e+09 M⁻¹, the Kd [1] is reported as 0.96 nM and the koff [1] is reported as 0.000401 s⁻¹. The kon [1] was 419000 M⁻¹ s⁻¹, the EC50 (FOLR1-Fc [2]) was 3.04 ng/mL and the “Relative Potency” value [3] was 1 fold (reference). For the same binder, the “Relative Potency” value (FOLR1-Fc [4]) was 1 fold (reference), the “Relative Potency” value (FOLR1-Fc [5]) was 1 fold (reference) and the EC50 (FOLR1-Fc [6]) was 11 ng/mL. For the same binder, the EC50 (FOLR1-Fc [7]) was 11.8 ng/mL and the “Relative Potency” value (FOLR1-Fc [8]) was 1 fold (reference).

B2: CDR-L2 library clone H2 (Fab, V domains shown)
VH: B1 VH
VL: B1 VL with G51T, T52A, N54S, L55R
notes: Fab clone from the phage library on the parent Fab template; Only the CDR-L2 is printed
B2: binds [9].

B3: CDR-L1 library clone C7 (Fab, V domains shown)
VH: B1 VH
VL: B1 VL with V25A, I29L, N32S, N33Y
notes: Fab clone from the phage library on the parent Fab template; Only the CDR-L1 is printed
B3: binds [9].

B4: Modified antibody vAb5 (antibody, V domains shown)
VH: B1 VH with P103V
VL: B1 VL
notes: Carries modified CDR-H3
In the case of B4, the “Relative Potency” value (FOLR1-Fc [10]) is reported as 1.42 fold against parent antibody and the EC50 (FOLR1-Fc [11]) is reported as 2.17 ng/mL.

B5: CDR-L1 library clone F3 (Fab, V domains shown)
VH: B1 VH
VL: B1 VL with S24R, V25A, S28G, I29V
notes: as for B3
B5: binds [9].

B6: CDR-L1 library clone D7 (Fab, V domains shown)
VH: B1 VH
VL: B1 VL with S24R, V25A, S28G, I29L
notes: as for B3
B6: binds [9].

B7: CDR-L1 library clone H7 (Fab, V domains shown)
VH: B1 VH
VL: B1 VL with I29L, N32S
notes: as for B3
B7: binds [9].

B8: CDR-L2 library clone B1 (Fab, V domains shown)
VH: B1 VH
VL: B1 VL with G51A, N54S, L55R, S57T
notes: as for B2
B8: binds [9].

B9: CDR-L2 library clone C3 (Fab, V domains shown)
VH: B1 VH
VL: B1 VL with G51A, L55R, A56E
notes: as for B2
B9: binds [9].

B10: CDR-L1 library clone D5 (Fab, V domains shown)
VH: B1 VH
VL: B1 VL with S24R, S28G
notes: as for B3
B10: binds [9].

B11: CDR-L2 library clone C10 (Fab, V domains shown)
VH: B1 VH
VL: B1 VL with G51A, N54S, S57T
notes: as for B2
B11: binds [9].

B12: Modified antibody vAb4 (antibody, V domains shown)
VH: B1 VH
VL: B1 VL with N54S, L55R
notes: Carries modified CDR-L2
In the case of B12, the “Relative Potency” value (FOLR1-Fc [10]) is reported as 1.94 fold against parent antibody and the EC50 (FOLR1-Fc [11]) is reported as 1.59 ng/mL.

B13: CDR-L2 library clones E9, G6 (Fab, V domains shown)
VH: B1 VH
VL: B1 VL with T52A, N54S, S57T
notes: Fab clones from the phage library on the parent Fab template; Only the CDR-L2 is printed
B13: binds [9].

B14: Modified antibody vAb3 (antibody, V domains shown)
VH: B1 VH
VL: B1 VL with V25A, S28G, I29L, N32S, N33Y
notes: Carries modified CDR-L1
For B14, the “Relative Potency” value (FOLR1-Fc [10]) was 3.99 fold against parent antibody and the EC50 (FOLR1-Fc [11]) was 0.77 ng/mL.

B15: Modified antibody vAb1 (antibody, V domains shown)
VH: B1 VH with P103V
VL: B1 VL with V25A, S28G, I29L, N32S, N33Y, N54S, L55R
notes: Carries modified CDR-H3, CDR-L1 and CDR-L2
Binder B15 has a Ka [1] of 4.17e+09 M⁻¹, a Kd [1] of 0.24 nM and a koff [1] of 0.000147 s⁻¹. The kon [1] was 612000 M⁻¹ s⁻¹, the “Relative Potency” value [12] was 4 fold against parent antibody and the “Relative Potency” value (FOLR1-Fc [10]) was 4.48 fold against parent antibody. For the same binder, the EC50 (FOLR1-Fc [11]) was 2.45 ng/mL.

B16: Modified antibody vAb2 (antibody, V domains shown)
VH: B1 VH
VL: B1 VL with V25A, S28G, I29L, N32S, N33Y, N54S, L55R
notes: Carries modified CDR-L1 and CDR-L2
For B16, the “Relative Potency” value (FOLR1-Fc [10]) was 3.04 fold against parent antibody and the EC50 (FOLR1-Fc [11]) was 3.94 ng/mL.

B17: CDR-L1 library clone H1 (Fab, V domains shown)
VH: B1 VH
VL: B1 VL with V25A, N32S, N33Y
notes: as for B3
B17: binds [9].

B18: CDR-L2 library clone G3 (Fab, V domains shown)
VH: B1 VH
VL: B1 VL with G51A
notes: as for B2
B18: binds [9].
